Measurements as given in patent US20060293506A1 (Amgen, published 2006).

Target: p35 form of the 30664188.0.99 gene product (active fragment of PDGFD) (human, UniProt Q9GZP0 250-370)
Assay: cell-based or functional assay

| Binder | IC50 (ng/mL), BrdU incorporation assay on NIH 3T3 cells |
| --- | --- |
| CURA2 MAb 6.4 (antibody, IgG2, V domains shown) VH: QVQLVQSGAEVKKPGASVKVSCKASGYTFTSYDINWVRQATGQGLEWMGWINPNSGNTDYAQKFQGRVTMTRDTSISTAYMELSSLRSEDTAIYYCVRGFGYSYNYDYYYGMDVWGQGTTVTVSS VL: not shown | 75 ng/mL |
| CURA2 MAb 1.45 (antibody, IgG2, V domains shown) VH: QVQLVQSGAEVKKPGASVKVSCKASGYTFTSYDINWVRQATGQGLEWMGWMNPNSGNTGYAQKFQGRVTMTRNTSISTAYMELSSLRSEDTAVYYCARGSGYSYGYDYYYGMDVWGQGTTVTVSS VL: DIQMTQSPSSLSASVGDRVTINCRASQGISNDLAWYQQKPGKVPKLLIYAASTLQLGVPSRFSGSGSGTDFTLTISSLQPEDVATYYCQKYNSAPFTFGPGTKVDIK | 750 ng/mL |
| CURA2 MAb 1.51 (antibody, IgG2, V domains shown) VH: EVQLVQSGAEVKKPGESLKISCKGSGYSFTSYWIGWVRQMPGKGLEWMGIIYPGDSDAKYSPSFQGQVTISADKSISTAYLQWSSLKASDTAMYYCARHYDYVWRNYRYTGWFDPWGQGTLVTVSS VL: not shown | 1000 ng/mL |
| CURA2 MAb 1.29 (antibody, IgG2, V domains shown) VH: EVQLVQSGAEVKKPGESLKISCKGSGYSFTSYWIGWVRQMPGKGLEWMGIIYPGDSDTRYSPSFQGQATISADKSISTAYLQWSSLKASDTAMYYCARHVDVGATIGGYYYYYHGMDVWGQGTTVTVSS VL: not shown | 150 ng/mL |
| CURA2 MAb 1.46 (antibody, IgG2, V domains shown) VH: QVQLVQSGAEVKKPGASVKVSCKASGYSFTSYDINWVRQATGQGLEWMGWMNPNNGNTGYAQKFQGRVTMTRNTSISTAYMELSSLRSEDTAVYYCARDIVVVVTATDYYYGMDVWGQGTTVTVSS VL: DIQMTQSPSSLSASVGDRVTITCRASQGIRNDLGWYQQKPGKAPKRLIFAASSLPSGVPSRFSGSGSGTEFTLTISSLQPEDFATYYCLQHSGYPPTFGQGTKVEIK | 500 ng/mL |
| CURA2 MAb 1.19 (antibody, IgG2, V domains shown) VH: QVQLVQSGAEVKKPGASVKVSCKASGYTFTSYDINWVRQATGQGLEWMGWMNPNSGNTGYAQKFQGRVTMTRNTSISTAYMELSSLRSEDTAVYYCARDVMITFGGVIVHYGMDVWGQGTTVTVSS VL: DIQMTQSPSSLSASVGDRVTITCRASQGIRNDLGWYQQKPGKAPKRLIYAASSLQSGVPSRFSGSGSGTDFTLTISSLQPEDFATYYCLQHNSDPCSFGQGTKLEIR | 75 ng/mL |
| CURA2 MAb 1.18 (antibody, IgG2, V domains shown) VH: QVQLVQSGAEVKKPGASVKVSCKASGYTFTSYDINWVRQATGQGLEWMGWMNPNSGNTGYAQKFQGRVTMTRNTSISTAYMELSSLRSEDTAVYYCAREGIAVAGTYYYYYGMDVWGQGTTVTVSS VL: DIQMTQSPSSLSASVGDRVTITCRASQGIRNDLGWYQQKPGKAPKRLIYAASSLQSGVPSRFSGSGSGTEFTLTISSLQPEDFATYFCLQHNSYPFTFGPGTKVDIK | > 1000 ng/mL |
